How the values were obtained:
[1] = biological target: T1, human MAGEA4 (human, UniProt P43358 1-317); assay: IHC, FFPE CHO cells transfected with human MAGEA4
T1 construct: whole, on cells; Transfected into CHO cells with Myc/DDK tags
T1 sequence (looked up): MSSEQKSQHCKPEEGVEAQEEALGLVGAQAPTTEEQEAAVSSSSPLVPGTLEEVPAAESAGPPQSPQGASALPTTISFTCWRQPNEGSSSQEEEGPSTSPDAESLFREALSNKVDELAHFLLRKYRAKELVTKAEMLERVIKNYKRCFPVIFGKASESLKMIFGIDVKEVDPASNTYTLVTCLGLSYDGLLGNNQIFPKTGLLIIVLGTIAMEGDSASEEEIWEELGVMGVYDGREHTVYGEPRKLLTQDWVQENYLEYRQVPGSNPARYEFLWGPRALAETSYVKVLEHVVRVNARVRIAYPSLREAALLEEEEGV
Source text: (§1) Negative control cells included parental Chinese hamster ovary (CHO) cells, CHO cells stably transfected with mCherry Vector Control (minus Myc/DDK tags), CHO cells stably transfected with mCherry-human DCAF4L2 (plus Myc/DDK tags). The cross-reactivity control cells included CHO cells transfected with mCherry Vector Control (plus Myc/DDK tags) with one of the human MAGE-B or MAGE-A family members (MAGEA1, MAGEA2, MAGEA3, MAGEA4, MAGEA5, MAGEA6, MAGEA8, MAGEA9, MAGEA11, MAGEA12, MAGEB1, MAGEB3, MAGEB4, MAGEB5, MAGEB6, MAGEB10, MAGEB16, MAGEB17, MAGEB18). Positive control cell lines included CHO cells transfected with mCherry Vector (plus Myc/DDK tags) with human MAGE-B2 or CHO cells transfected with mCherry Vector (open reading frame (ORF); minus Myc/DDK tags) with human MAGEB2, and thirteen human cancer cell lines with known endogenous RNA expression level of MAGEB2 (U266B1, T98G, KMM-1, U20S, CFPAC-1, SCaBER, UACC-257, CFPAC-1, VMRC-LCD, NCI-H1703, UM-UC-3, NCI-H1395, NCIH82).
(§2) FFPE samples were sectioned at 4 μm and mounted on positive charged glass slides. After mounting, paraffin sections were air-dried at room temperature. FFPE TMA samples were received as freshly sectioned and mounted on glass slides. The fully automated IHC assay was performed on a Discovery Ultra Stainer (Ventana Medical Systems, Tucson, AZ) using Ventana Anti-Rabbit HQ (cat #760-4815), Ventana Anti-HQ HRP (cat #760-4820), and Ventana Antibody Diluent with Casein (cat #760-219) (Ventana Medical Systems, Tucson, AZ). The slides were baked on the Discovery Ultra Stainer at 60° C. for 8 minutes, de-paraffinized with Ventana Discovery wash (cat #950-510) for 3 cycles (8 minutes each) at 69° C., and underwent cell conditioning (target retrieval) at 95° C. for 16 minutes (for cell arrays) or 32 minutes (tissues or TMAs) in CC1 buffer (cat #950-500). Following this, slides were incubated with Background Sniper (cat #BS966M, Biocare Medical, Pacheco, CA) in a Ventana Option Prep kit (cat #771-751) for 28 minutes, incubated with CM inhibitor (a part of the Ventana DAB kit cat #760-159) for 12 minutes, and incubated for 1 h at RT with MAGE-B2 antibody diluted with Ventana diluent with Casein in a Ventana Prep kit (cat #770-001) (working concentration at 0.1 μg/ml for cell pellet, or 1-5 ug/ml for tissues) or with a matched concentration of isotype control Rabbit IgG1 antibody.

[2] = biological target: T2, human MAGEA9 (human, UniProt P43362 1-315); assay: IHC, FFPE CHO cells transfected with human MAGEA9
T2 construct: whole, on cells; FFPE cell pellets
T2 sequence (looked up): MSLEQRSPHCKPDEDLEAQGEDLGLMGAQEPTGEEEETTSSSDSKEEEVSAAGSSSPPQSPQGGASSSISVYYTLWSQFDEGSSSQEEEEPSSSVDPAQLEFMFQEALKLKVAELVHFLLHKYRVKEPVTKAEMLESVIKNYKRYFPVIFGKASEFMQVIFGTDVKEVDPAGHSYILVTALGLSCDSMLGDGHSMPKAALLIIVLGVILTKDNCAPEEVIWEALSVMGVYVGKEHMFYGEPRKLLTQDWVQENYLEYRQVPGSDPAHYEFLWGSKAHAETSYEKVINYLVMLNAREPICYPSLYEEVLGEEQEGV
Description: as §2, with “antibody. Following this, slides were incubated with the Ventana Anti-Rabbit HQ (cat #760-4815) for 28 minutes at RT, Ventana Anti-HQ HRP (cat #760-4820) for 28 minutes at RT, and signals detected with Ventana DAB chromogen kit (cat #760-159) for 5 minutes at RT. Slides were counterstained with Ventana Hematoxylin II (cat #5266726001) for 8 minutes and Ventana Bluing reagent (cat #526676900) for 4 minutes. Slides were coverslipped and digitized using an Aperio AT2 scanner (Leica Biosystems Inc, Buffalo Grove, IL).” for “antibody.”

[3] = biological target: T3, human MAGEA12 (human, UniProt P43365 1-314); assay: IHC, FFPE CHO cells transfected with human MAGEA12
T3 construct: whole, on cells; FFPE cell pellets
Source text: as §1, §2

Measured: binding result

T3 sequence (P43365 whole entry): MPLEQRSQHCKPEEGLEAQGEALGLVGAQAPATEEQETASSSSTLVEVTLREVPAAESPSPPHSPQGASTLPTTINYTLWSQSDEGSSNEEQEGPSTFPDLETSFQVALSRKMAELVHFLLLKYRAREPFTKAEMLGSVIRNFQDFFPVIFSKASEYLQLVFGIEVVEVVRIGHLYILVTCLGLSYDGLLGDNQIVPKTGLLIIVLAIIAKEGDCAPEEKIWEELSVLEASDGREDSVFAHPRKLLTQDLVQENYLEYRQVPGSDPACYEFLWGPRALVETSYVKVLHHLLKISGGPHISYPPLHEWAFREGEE

B1: 1C3 (antibody, V domains shown)
VH: QSLEESGGGLVQPEGSLTLTCTAFGVTLTNYYICWVRQAPGKGLEWVGCIDNANGRTYYASWAKGRFTISKTSSTTGTLQMTSLTAADTATYFCARSLATPLWGPGTLVTVSS
VL: DIVMTQTPSSVEAAVGGTVTIKCQASQNISSYLAWYQQKPGQPPKLLIYRASTLASGVPSRFKGSGSGTQFTLTISDLECADAATYYCQSYDDSRSSNFFYAFGGGTEVVVKG
notes: also called MAGE-B2 (IC3); anti-MAGEB2 antibody 1C3
no binding (tested: 0.1 µg/ml): all assays above

B2: 4G17 (antibody, IgG1, V domains shown)
VH: QSLEESGGGLVQPEGSLTLTCTASGVTLSNYYICWVRQAPGKGLEWIGCIDNVNGRTYYASWAKGRFTISKTSSTTGTLQMTSLTAADTATYFCARSLATPLWGPGTLVTVSS
VL: DIVMTQTPASVEAAVGGTVTIKCQASQNIDSYLAWYQQKPGQPPKLLIYRASTLASGVPSRFKGSGSGTEFTLTISDLECADAATYYCQSYDDSRSSSFFYGFGGGTEVVVK
notes: Rabbit monoclonal IgG1; Tested as supernatant and as small batch purified antibody; also called MAGE-B2 (4G17); anti-MAGEB2 antibody 4G17
no binding (tested: 0.1 µg/ml): all assays above

B3: 1J15 (antibody, IgG1, V domains shown)
VH: QSLEESGGGLVQPEGSLTLTCTAFGFTLNNYYICWVRQAPGKGLEWIACIDNANGRTYYASWAKGRFTISKTSSTTVTLQMTSLTAADTATYFCARSLSTPLWGPGTLVTVSS
VL: DIVMTQTPASVEAAVGGTVTIKCQASQSISSYLSWYQQKPGQPPKLLIYRASTLASGVPSRFRGSGSGTQFTLTISDLECADAATYYCQSYDDSSDNNFFYGFGGGTEVVVR
notes: Rabbit monoclonal IgG1; Tested as supernatant and as small batch purified antibody; also called MAGE-B2 (IJ15); anti-MAGEB2 antibody 1J15
no binding (tested: 0.1 µg/ml): all assays above

B4: 1I14 (antibody, V domains shown)
VH: QSVEESGGRLVTPGTPLTLTCTISGFSLSSYAMSWVRQAPGKGLEWIGSIGGGGSAVYASWAKGRFTISKTSTTVDLRITSPTTEDTAMYFCGRGFYSIDLWGPGTLVTVSS
VL: DVVMTQTPASVEATVGGTVTIKCQSSQSVYDNNALAWYQQNAGQRPRLLIYGASTLASGVPSRFSASGSGTEFTLTISDLECADAATYYCQCTYYVSSYQNDFGGGTEVVVKG
notes: also called MAGE-B2 (1i14)
no binding (tested: 0.1 µg/ml): all assays above

From patent US20250282887A1 (Amgen, published 2025)
